According to patent publication US20140017269A1 (CHILDREN S HOSPITAL MEDICAL CENTER, published 2014):

Assays:
[1] = target: the molecule itself; assay: gel filtration chromatography (self-association)
[2] = target: the molecule itself; assay: form of the immunogen as described; self-association
[3] = target: the molecule itself; assay: gel filtration and EM; self-association
[4] = target: the molecule itself; assay: gel filtration; self-association
[5] = target: the molecule itself; assay: gel filtration; self-association; remark: listed apart in the source

B1: Rotavirus VP8* (other)
chain: LDGPYQPTTFTPPTDYWILINSNTNGVVYESTNNSDFWTAVIAVEPHVNPVDRQYNVFGENKQFNVRNDSDKWKFLEMFRGSSQNDFYNRRTLTSDTRLVGILKYGGRIWTFHGETPRATTDSSNTANLNGISITIHSEFYIIPRSQESKCNEYINNGL
notes: ~18 kDa monomer; also called free VP8* monomer
B1: no binding [1].

B2: NoV P^- (387)-NoV P^- (115) fusion protein (other)
chain: SRTKPFTVPILTVEEMSNSRFPIPLEKLYTGPSSAFVVQPQNGRCTTDGVLLGTTQLSAVNICTFRGDVTHIAGSHDYIMNLASQNWNNYDPTEEIPAPLGTPDFVGKIQGMLTQTTREDGSTRAHKATVSTGSVHFTPKLGSVQYTTDTNNDLQTGQNTKFTPVGVIQDGNNHQNEPQQWVLPNYSGRTGHNVHLAPAVAPTFPGEQLLFFRSTMPGCSGYPNMNLDCLLPQEWVQHFYQEAAPAQSDVALLRFVNPDTGRVLFECKLHKSGYVTVAHTGPHDLVIPPNGYFRFDSWVNQFYTLAPMGNGAGRGGGGGGGGGGGGQKTKPFSVPNLPLNTLSNSRVPSLIRSMMVSRDHGQMVQFQNGRVTLDGQLQGTTPTSASQLCKIRGSVFHANGGNGYTLTELDGSPYHAFESPAPIGFPDLGECDWHMEASPTTQFDTGDVIKQINVKQEAAFAPHLGTIQADGLSDVSVNTNMIAKLGWVSPASDGHRGNVDPWVIPRYGSTLTEAAQLAPPIYPPGFGEAIVFFMSDFPIAHGANGLSVPCTIPQEFVTHFVNEQAPTRGEAALLHYLDPDTHRNLGEFKLYPEGFMTCVPNSSGTGPQTLPINGVFVFVSWVSRFYQLKPVGTAGPARSLGI
B2: binds [2].

B3: NoV P^- (387)-NoV P^- (207) fusion protein (other)
chain: SRTKPFTVPILTVEEMSNSRFPIPLEKLYTGPSSAFVVQPQNGRCTTDGVLLGTTQLSAVNICTFRGDVTHIAGSHDYIMNLASQNWNNYDPTEEIPAPLGTPDFVGKIQGMLTQTTREDGSTRAHKATVSTGSVHFTPKLGSVQYTTDTNNDLQTGQNTKFTPVGVIQDGNNHQNEPQQWVLPNYSGRTGHNVHLAPAVAPTFPGEQLLFFRSTMPGCSGYPNMNLDCLLPQEWVQHFYQEAAPAQSDVALLRFVNPDTGRVLFECKLHKSGYVTVAHTGPHDLVIPPNGYFRFDSWVNQFYTLAPMGNGAGRGGGGGGGGGGGGSKTKAFTIPVLKISEMTNSRFPVPVDQMYTSRSEGIVVQPQNGRATIDGELLGTTLVSPVSVCNFKGNLQAEVPGQHQLYQLQLTNLDGSPIDPTDDTPGPLGCPDFTGLLYGVASQRGPGDATRAHEARIDTGSDTFAPKIGQVRFYSTSSDFETNQPTHFTPIGIYIEGNSSDFNQWQLPRYGGHLANNNHLAPAVSPLFPGEQILFFRSFIPGASGHTNGEMDCLLPQEFVQHFYQEAATARSEVALLRFVNPDTGRALFESKLHKQGFMTIASSGDHPIIMPTNGYFRFEAWVNQFYSLAPVGTGSGR
notes: also called NoV P^-(GII.4)-NoV P^-(GII.9)
B3: binds [3].

B4: HEV P domain (protruding domain of hepatitis E virus) (other)
chain: TPSPAPSRPFSVLRANDVLWLSLTAAEYDQTTYGSSTNPMYVSDTVTFVNVATGAQAVARSLDWSKVTLDGRPLTTIQQYSKTFYVLPLRGKLSFWEASTTKAGYPYNYNTTASDQILIENAAGHRVAISTYTTSLGAGPTSISAVGVLAPHSALAALEDTVDYPCDCRGDCFC
notes: released from GST-HEV P by thrombin; ~19 kDa monomer, ~38 kDa dimer
B4: binds [4].

B5: NoV P^--VP8* (C-end) protein (other)
chain: SRTKPFTVPILTVEEMSNSRFPIPLEKLYTGPSSAFVVQPQNGRCTTDGVLLGTTQLSAVNICTFRGDVTHIAGSHDYIMNLASQNWNNYDPTEEIPAPLGTPDFVGKIQGMLTQTTREDGSTRAHKATVSTGSVHFTPKLGSVQYTTDTNNDLQTGQNTKFTPVGVIQDGNNHQNEPQQWVLPNYSGRTGHNVHLAPAVAPTFPGEQLLFFRSTMPGCSGYPNMNLDCLLPQEWVQHFYQEAAPAQSDVALLRFVNPDTGRVLFECKLHKSGYVTVAHTGPHDLVIPPNGYFRFDSWVNQFYTLAPMGNGAGRGGGGGGGGGGGGLDGPYQPTTFTPPTDYWILINSNTNGVVYESTNNSDFWTAVIAVEPHVNPVDRQYNVFGENKQFNVRNDSDKWKFLEMFRGSSQNDFYNRRTLTSDTRLVGILKYGGRIWTFHGETPRATTDSSNTANLNGISITIHSEFYIIPRSQESKCNEYINNGL
notes: Thrombin-cleaved product; ~52 kDa monomer, ~100 kDa dimer; also called free NoV P^--VP8* dimer
B5: binds [5].

B6: NoV P domain-RGDCFC (NoV P^+) of Norovirus VA387 (GII.4) (other)
chain: SRTKPFTVPILTVEEMSNSRFPIPLEKLYTGPSSAFVVQPQNGRCTTDGVLLGTTQLSAVNICTFRGDVTHIAGSHDYIMNLASQNWNNYDPTEEIPAPLGTPDFVGKIQGMLTQTTREDGSTRAHKATVSTGSVHFTPKLGSVQYTTDTNNDLQTGQNTKFTPVGVIQDGNNHQNEPQQWVLPNYSGRTGHNVHLAPAVAPTFPGEQLLFFRSTMPGCSGYPNMNLDCLLPQEWVQHFYQEAAPAQSDVALLRFVNPDTGRVLFECKLHKSGYVTVAHTGPHDLVIPPNGYFRFDSWVNQFYTLAPMGNGAGRRRALCDCRGDCFC
notes: Mainly the 24mer P particle (~830 kDa), with a low portion (~5%) of P dimer; also called P-RGDCFC
B6: binds [3].

B7: NoV P polypeptide (NoV P^-) of Norovirus VA387 (GII.4) (other)
chain: SRTKPFTVPILTVEEMSNSRFPIPLEKLYTGPSSAFVVQPQNGRCTTDGVLLGTTQLSAVNICTFRGDVTHIAGSHDYIMNLASQNWNNYDPTEEIPAPLGTPDFVGKIQGMLTQTTREDGSTRAHKATVSTGSVHFTPKLGSVQYTTDTNNDLQTGQNTKFTPVGVIQDGNNHQNEPQQWVLPNYSGRTGHNVHLAPAVAPTFPGEQLLFFRSTMPGCSGYPNMNLDCLLPQEWVQHFYQEAAPAQSDVALLRFVNPDTGRVLFECKLHKSGYVTVAHTGPHDLVIPPNGYFRFDSWVNQFYTLAPMGNGAGR
notes: ~34.5 kDa monomer, ~69 kDa dimer; also called free NoV P^- dimer
B7: binds [4].
